Data on 4 molecules can be found in PMC5101480 (Scientific Reports, 2016).

A word on the Kd: it is the concentration at which binding is half-saturated.

To fix the notation:
B1: Rpn13 extreme C-terminal pentapeptide (DMSLD; residues 403-407) (peptide)
peptide: DMSLD
notes: also called DMSLD peptide; DMSLD pentapeptide; source: synthetic peptide, bought: Alta BioScience (Birmingham, UK)
B2: TPR domain of SGTA (small, glutamine-rich, tetratricopeptide repeat protein alpha), residues 84-211 (domain or fragment, human, UniProt O43765 84-211, looked up)
chain: SEEDSAEAERLKTEGNEQMKVENFEAAVHFYGKAIELNPANAVYFCNRAAAYSKLGNYAGAVQDCERAICIDPAYSKAYGRMGLALSSLNKHVEAVAYYKKALELDPDNETYKSNLKIAELKLREAPS
notes: human SGTA, central TPR domain, residues 84-211; 15N-labelled (M9 medium) where it was the observed species in NMR; unlabelled otherwise; not shown: thioredoxin A (TxA), N-terminal, cleaved; His6, N-terminal, cleaved

One data set addresses SGTA-V5 (UniProt O43765).
Data set [1] deals with B2. As to the kind of experiment: ITC; SGTA_TPR at 1 mM injected into Rpn13 or DMSLD peptide at 50 μM in the cell; 25 °C, 10 mM potassium phosphate pH 6.0, 100 mM NaCl, 250 μM TCEP; one site assumed (n = 1). To be noted: both partners purified. Background: ITC needs no label: the signal is the heat of the interaction.
Data set [2] deals with T1, spin labelled K398C Rpn13_(260-407) mutant (human, UniProt Q16186 260-407, K398C, paramagnetic MTSL or diamagnetic dMTSL label incorporated via the K398C cysteine).
T1 construct: The paramagnetic and the diamagnetic sample are written as one molecule: the PRE read-out is the ratio of the two; source: E. coli BL21(DE3) Rosetta, purified, then labelled with MTSL or dMTSL; not shown: thioredoxin A (TxA), N-terminal, cleaved; His6, N-terminal, cleaved
As to the kind of experiment: NMR paramagnetic relaxation enhancement; 15N-labelled SGTA_TPR mixed with MTSL or dMTSL labelled K398C Rpn13_(260-407) at a 1:1.2 ratio, 200 μM; 10 mM potassium phosphate pH 6.0, 100 mM NaCl; 1H-15N HSQC. To be noted: both partners purified.

For data set [3], the target named is B1. In words: ITC; SGTA_TPR at 1 mM injected into Rpn13 or DMSLD peptide at 50 μM in the cell; 25 °C, 10 mM potassium phosphate pH 6.0, 100 mM NaCl, 250 μM TCEP; one site assumed (n = 1). To be noted: both partners purified.
Data set [4] concerns the target T2, Rpn13 C-terminal domain, residues 260-407 (human, UniProt Q16186 260-407).
T2 construct: 15N-labelled where it was the observed species in NMR; unlabelled otherwise; not shown: thioredoxin A (TxA), N-terminal, cleaved; His6, N-terminal, cleaved
The description is as above. To be noted: both partners purified.

Data set [5] concerns the target T2, Rpn13 C-terminal domain, residues …. As to the kind of experiment: NMR titration; 1H-15N HSQC chemical shift perturbation; unlabelled SGTA_TPR (wild type or K160E/R164E) titrated into 15N-labelled Rpn13_(260-407); 25 °C, 10 mM potassium phosphate pH 6.0, 100 mM NaCl, 250 μM TCEP. To be noted: both partners purified.
Data set [6] concerns the target T3, TPR domain of SGTA (SGTA_TPR) (Homo sapiens, UniProt O43765).
T3 construct: thioredoxin A (TxA) fusion (N, cleaved yes); hexahistidine tag (N, cleaved yes); made in house; host or cells: E. coli BL21(DE3) Rosetta
As to the kind of experiment: Size exclusion chromatography (SEC) complex formation with SGTA_TPR. In kind it is binding. The note with it: mixed in 1:1 molar ratio. The method, then:
In order to understand molecular details underlying the interaction between SGTA and Rpn13, solution NMR studies were carried out on excised domains of SGTA and Rpn13 guided by earlier mapping studies. Reciprocal chemical shift perturbation (CSP) experiments were performed by titrating unlabelled Rpn13 C-terminal domain (residues 260–407; hereafter described as Rpn13_260-407) into ^15N-labelled TPR domain of SGTA (residues 84–211; hereafter referred to as SGTA_TPR) and vice versa. Assignments of backbone amide resonances were obtained from the BMRB (accession numbers 5709 and 17286, for SGTA_TPR and Rpn13_260-407, respectively). The ^1H-^15N HSQC spectra of both SGTA_TPR and Rpn13_260-407 show binding in a fast exchange regimen (Figs 1A and 2A). […] Binding was further confirmed by size-exclusion chromatography (SEC) and isothermal titration calorimetry (ITC) (Fig. 1C,D). […]
SGTA_TPR and Rpn13 plasmids were transformed into E. coli BL21(DE3) Rosetta cells, with protein expression induced by adding 0.3–0.5 mM isopropyl-β-D-thiogalactopyranoside (IPTG) to bacterial cultures in LB media at OD600 ≈ 0.8, followed by overnight incubation at 18 °C. […] Proteins were concentrated using Vivaspin concentrators (Sartorius Stedin) and sample purity and homogeneity was assessed by SDS-PAGE, mass spectrometry and NMR. […]
For orientation: In gel filtration, larger molecules generally elute earlier.

Data set [7] concerns the target T3, TPR domain of SGTA (SGTA_TPR). As to the kind of experiment: Isothermal titration calorimetry (ITC), SGTA_TPR titrated into Rpn13 or DMSLD peptide. In kind it is binding. To be noted: 20 injections of 2 μL of 1 mM SGTA_TPR into 50 μM Rpn13_260-402, pH 6.0, 25 °C. The method, then: ITC experiments were performed using an ITC-200 microcalorimeter from Microcal (GE Healthcare) at 25 °C following the standard protocol as reported previously. Proteins or peptide samples were prepared in 10 mM potassium phosphate pH 6.0, 100 mM NaCl, 250 μM TCEP. In each titration, either 40 injections of 1 μL or 20 injections of 2 μL of SGTA_TPR each, at a concentration of 1 mM, were added to a sample of Rpn13 or the Rpn13 derived DMSLD peptide at a concentration of 50 μM in the reaction cell. A nonlinear least-squares minimization algorithm was applied to integrated heat data obtained for the titrations, corrected for heats of dilution, in order to fit the experimentally obtained values to a theoretical titration curve. This was performed using the MicroCal-Origin 7.0 software package. ΔH (reaction enthalpy change in kcal/mol), Kb (equilibrium binding constant in per molar), and n (molar ratio between the proteins in the complex) were used as fitting parameters. The reaction entropy, ΔS, was calculated using the relationships ΔG = −RT lnKb (R = 8.314 J/(mol K), T 298 K) where ΔG = ΔH − TΔS. Dissociation constants (Kd) have been determined for each interaction. Binding was assumed to be at one site (n = 1), to determine the binding affinity (Kd) and thermodynamic parameters.

The target is the same in data set [8]. As to the kind of experiment: Solution NMR CSP titration of unlabelled ligand into 15N-labelled SGTA_TPR. The note with it: unlabelled ligand into 15N-labelled SGTA_TPR; pH 6.0, 25 °C; Rpn13_260-407 up to 8 equivalents, Rpn13_260-402 up to 6-fold molar excess. In kind it is binding. The procedure:
In order to understand molecular details underlying the interaction between SGTA and Rpn13, solution NMR studies were carried out on excised domains of SGTA and Rpn13 guided by earlier mapping studies. Reciprocal chemical shift perturbation (CSP) experiments were performed by titrating unlabelled Rpn13 C-terminal domain (residues 260–407; hereafter described as Rpn13_260-407) into ^15N-labelled TPR domain of SGTA (residues 84–211; hereafter referred to as SGTA_TPR) and vice versa. Assignments of backbone amide resonances were obtained from the BMRB (accession numbers 5709 and 17286, for SGTA_TPR and Rpn13_260-407, respectively). The ^1H-^15N HSQC spectra of both SGTA_TPR and Rpn13_260-407 show binding in a fast exchange regimen (Figs 1A and 2A). […] Binding was further confirmed by size-exclusion chromatography (SEC) and isothermal titration calorimetry (ITC) (Fig. 1C,D). […] ITC experiments yield a dissociation constant of 16.1 ± 1.4 μM in keeping with the value obtained from NMR.
Protein samples at concentrations between 300 μM and 1 mM were prepared in 10% D2O (Sigma Aldrich), 10 mM potassium phosphate pH 6.0, 100 mM NaCl and 250 μM TCEP buffer (with 10 μM DSS for proton chemical shift referencing). All NMR experiments were acquired in 5 mm NMR tubes at 25 °C on 500 MHz and 700 MHz Bruker Avance spectrometers equipped with cryoprobes and operated by the TopSpin 3.1 software package. All NMR spectra were processed with TopSpin and analysed with CcpNMR Analysis[35]. Proteins used for NMR titrations were dialysed overnight against the same buffer (10 mM potassium phosphate pH 6.0, 100 mM NaCl and 250 μM TCEP) and mixed in different molar ratios, with the concentration of the labelled protein maintained constant. ^1H-^15N HSQC experiments were recorded for each titration point at 25 °C. Chemical shift perturbation (CSP) values were calculated for each amide signal using the following formula: […]
where Δδ1H and Δδ15N are the chemical shift differences for the same amide in its free and bound state (δfree−δbound) and for proton and nitrogen chemical shift values respectively. […]

Sequence of SGTA-V5 (O43765 whole entry): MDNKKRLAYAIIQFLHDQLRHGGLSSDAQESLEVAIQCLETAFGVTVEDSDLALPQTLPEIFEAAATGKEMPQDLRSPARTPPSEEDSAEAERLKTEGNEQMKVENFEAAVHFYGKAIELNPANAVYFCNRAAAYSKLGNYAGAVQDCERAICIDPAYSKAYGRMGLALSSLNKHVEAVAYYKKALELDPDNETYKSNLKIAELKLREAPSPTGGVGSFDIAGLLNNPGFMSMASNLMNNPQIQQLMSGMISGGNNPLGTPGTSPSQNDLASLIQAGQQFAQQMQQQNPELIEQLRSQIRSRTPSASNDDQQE

In the data set with SGTA-V5, “FLAG tagged mouse Rpn13 (150-402) (from UniProt Q9JKV1 150-402) (domain or fragment)” showed a fold increase of steady state OP91 level (quantitative western blot) in HeLa TRex Flp-In cells co-expressing SGTA-V5 and Rpn13 (150-402), against the Rpn13 (150-407) control of 3 fold.

In turn, B1 had a Kd in data set [1] of 71.9 ± 13.3 µM.

For B2, in data set [2], the binding result is “binds”. In addition, the dH is -4.97 ± 0.41 kcal/mol in [3] and -3.37 ± 0.08 kcal/mol in [4]. Also, the Kd turned out to be 16.1 ± 1.4 µM in data set [4] and 3.27 ± 0.87 µM in data set [5].

B3: Rpn13_260-402: Rpn13 construct devoid of the C-terminal pentapeptide (residues 260–402) (protein)
chain: QPIQLSDLQSILATMNVPAGPAGGQQVDLASVLTPEIMAPILANADVQERLLPYLPSGESLPQTADEIQNTLTSPQFQQALGMFSAALASGQLGPLMCQFGLPAEAVEAANKGDVEAFAKAMQNNAKPEQKEGDTKDKKDEEE
modifications: left off: thioredoxin A (TxA), N-terminal, cleaved | His6, N-terminal, cleaved
In the case of B3, the “SEC complex formation with SGTA_TPR” value in data set [6] is recorded as “no evidence of an interaction”. For the same molecule, the entries for the “ITC binding, result in words” value in [7] and in data set [7] (listed as Rpn13260-402) were “abrogation of binding with SGTA_TPR” and “does not interact”, respectively. Further, in [8], the “CSP of SGTA_TPR backbone amide signals, result in words” value is “no perturbation of SGTA_TPR backbone amide signals”.
